Target: T1, human fibrinogen (human, UniProt P02671 20-629; P02675 31-491; P02679 27-437, limits assumed)
T1 construct: Bought from Sigma and coated on 96-well plates; also called fibrinogen plate
T1 sequence (looked up) 1: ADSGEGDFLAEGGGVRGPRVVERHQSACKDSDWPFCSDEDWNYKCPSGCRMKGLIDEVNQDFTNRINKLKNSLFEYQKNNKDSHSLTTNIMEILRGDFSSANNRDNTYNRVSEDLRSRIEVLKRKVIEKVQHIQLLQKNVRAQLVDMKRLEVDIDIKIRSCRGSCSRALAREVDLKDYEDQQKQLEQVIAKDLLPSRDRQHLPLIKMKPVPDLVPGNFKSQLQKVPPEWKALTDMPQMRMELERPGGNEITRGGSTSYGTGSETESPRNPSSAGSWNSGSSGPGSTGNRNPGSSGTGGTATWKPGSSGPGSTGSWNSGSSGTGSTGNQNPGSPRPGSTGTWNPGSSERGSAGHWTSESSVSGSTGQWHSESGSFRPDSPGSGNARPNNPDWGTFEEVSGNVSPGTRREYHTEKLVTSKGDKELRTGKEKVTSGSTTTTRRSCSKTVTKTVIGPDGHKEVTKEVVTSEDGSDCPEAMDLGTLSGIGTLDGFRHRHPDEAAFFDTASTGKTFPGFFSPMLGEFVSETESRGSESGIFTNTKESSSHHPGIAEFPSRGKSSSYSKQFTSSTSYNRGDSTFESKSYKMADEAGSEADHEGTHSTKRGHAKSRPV
T1 sequence (looked up) 2: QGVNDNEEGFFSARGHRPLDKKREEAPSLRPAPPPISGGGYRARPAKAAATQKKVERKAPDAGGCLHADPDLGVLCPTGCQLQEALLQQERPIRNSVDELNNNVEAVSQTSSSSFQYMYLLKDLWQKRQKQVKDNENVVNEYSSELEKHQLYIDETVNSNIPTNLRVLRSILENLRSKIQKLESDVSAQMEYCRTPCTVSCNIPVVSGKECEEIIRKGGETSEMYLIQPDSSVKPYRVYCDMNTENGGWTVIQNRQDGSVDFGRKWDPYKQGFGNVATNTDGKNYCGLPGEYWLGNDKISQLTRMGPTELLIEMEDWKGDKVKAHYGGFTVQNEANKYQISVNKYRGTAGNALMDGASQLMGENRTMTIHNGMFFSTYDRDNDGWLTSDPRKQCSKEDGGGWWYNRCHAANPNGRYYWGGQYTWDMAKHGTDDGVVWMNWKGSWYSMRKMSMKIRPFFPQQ
T1 sequence (looked up) 3: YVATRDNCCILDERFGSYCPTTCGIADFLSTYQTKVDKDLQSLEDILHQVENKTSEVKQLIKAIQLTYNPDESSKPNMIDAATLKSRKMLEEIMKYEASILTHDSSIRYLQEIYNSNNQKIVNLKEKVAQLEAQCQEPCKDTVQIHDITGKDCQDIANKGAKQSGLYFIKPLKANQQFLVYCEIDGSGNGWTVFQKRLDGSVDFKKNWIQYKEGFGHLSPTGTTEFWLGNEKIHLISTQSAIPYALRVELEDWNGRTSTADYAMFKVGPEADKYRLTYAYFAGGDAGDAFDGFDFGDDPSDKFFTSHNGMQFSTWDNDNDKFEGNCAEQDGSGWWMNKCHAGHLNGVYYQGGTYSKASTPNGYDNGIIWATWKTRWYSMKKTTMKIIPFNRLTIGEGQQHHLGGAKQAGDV
Assay: ELISA on fibrinogen-coated plate (1 µg/well)

- binding result: no binding
B1: 102-10 scFv specific for human fibrin (scFv)
scFv: DIQMTQSPSSLSASLGGKVTITCKASQDINKYIAWFQHKPGKGPRLLIHYTSTLQPGIPSRFSGSGSGRDYSFSISNLEPEDLATYYCLQYDNLTWTFGGGTKLEIKRGSTSGSGKPGSGEGSTKGQIQLVQSGPELKKPGETVKISCKASGYTFTNYGMNWVKQAPGKGLKWMGWINTYTGEATYADDFKGRFAFSLETSANTAYVQINNLKNEDTATYFCARLMDYWGQGTSVTVSSGGGGSGGGGSC

— patent publication EP3344659B1 (Immunwork Inc., dated 2025)
